Experimental data from patent publication US20220096547A1.

Biological target: human TLR5 (human) (UniProt O60602)
Experiment: cell-based or functional assay

UniProt O60602, sequence (O60602 21-858): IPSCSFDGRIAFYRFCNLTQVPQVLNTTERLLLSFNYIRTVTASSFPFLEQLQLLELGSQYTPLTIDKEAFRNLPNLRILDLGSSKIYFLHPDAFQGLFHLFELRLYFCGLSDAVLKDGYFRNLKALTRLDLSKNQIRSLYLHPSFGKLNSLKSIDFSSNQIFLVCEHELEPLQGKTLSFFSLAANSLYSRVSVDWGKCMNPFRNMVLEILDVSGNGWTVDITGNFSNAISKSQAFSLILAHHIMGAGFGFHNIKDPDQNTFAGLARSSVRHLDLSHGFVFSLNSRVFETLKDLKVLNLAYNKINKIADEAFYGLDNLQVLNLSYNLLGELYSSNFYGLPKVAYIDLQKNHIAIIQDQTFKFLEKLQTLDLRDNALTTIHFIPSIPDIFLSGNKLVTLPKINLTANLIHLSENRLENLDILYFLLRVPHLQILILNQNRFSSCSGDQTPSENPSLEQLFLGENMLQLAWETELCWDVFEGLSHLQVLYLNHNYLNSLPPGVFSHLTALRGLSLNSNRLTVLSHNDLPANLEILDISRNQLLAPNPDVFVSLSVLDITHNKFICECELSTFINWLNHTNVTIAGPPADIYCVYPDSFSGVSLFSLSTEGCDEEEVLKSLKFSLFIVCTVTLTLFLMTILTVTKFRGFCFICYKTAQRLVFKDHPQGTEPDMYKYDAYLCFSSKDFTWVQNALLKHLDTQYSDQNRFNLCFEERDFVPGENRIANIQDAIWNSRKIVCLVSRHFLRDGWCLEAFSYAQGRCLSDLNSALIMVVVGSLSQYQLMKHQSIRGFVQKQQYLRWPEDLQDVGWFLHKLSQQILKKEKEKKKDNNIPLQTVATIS

| Substance | TLR5 activation activity (NF-κB SEAP reporter assay) compared to full-length flagellin |
| --- | --- |
| Salmonella typhimurium flagellin fragment Flic-6a (from UniProt P06175 71-493) (ligand) | > 50% |
| Salmonella typhimurium flagellin fragment Flic-7a (from UniProt P06175 71-493) (ligand) | > 50% |
| Salmonella typhimurium flagellin fragment Flic-8a (from UniProt P06175 71-493) (ligand) | > 50% |
| Salmonella typhimurium flagellin fragment Flic-12a (from UniProt P06175 37-493) (ligand) | > 50% |
| Salmonella typhimurium flagellin fragment Flic-14a (from UniProt P06175 37-493) (ligand) | > 50% |
| Salmonella typhimurium flagellin fragment Flic-15a (from UniProt P06175 37-493) (ligand) | > 50% |
| Salmonella typhimurium flagellin fragment Flic-20a (from UniProt P06175 51-493) (ligand) | > 50% |
| Salmonella typhimurium flagellin fragment Flic-21a (from UniProt P06175 51-469) (ligand) | > 50% |
| Salmonella typhimurium flagellin fragment Flic-22a (from UniProt P06175 51-493) (ligand) | > 50% |
| Salmonella typhimurium flagellin fragment Flic-23a (from UniProt P06175 51-493) (ligand) | > 50% |
